The record followed here is article PMC6427009 (Scientific Reports, 2019).

For the assay, the target named is Hemagglutinin of Influenza A/California/07/2009 (H1N1) (Influenza A/California/07/2009 (H1N1), UniProt C3W5X2, fully glycosylated (7 glycosylation sites)). Kind of assay: HDX-MS. Conditions: both partners purified.

B1: llama single-domain antibody SD38 (VHH)
VHH: EVQLVESGGGLVQPGGSLRLSCAVSISIFDIYAMDWYRQAPGKQRDLVATSFRDGSTNYADSVKGRFTISRDNAKNTLYLQMNSLKPEDTAVYLCHVSLYRDPLGVAGGMGVYWGKGALVTVSS
notes: also called Llama single domain SD38
As for B1, the binding result is given as “binds”.
